Fold change of the relative BiFC fluorescence intensity in the cytoplasm, UV-B against white light data for 1 substance are collected here from paper PMC10560287.

The target of this assay is GmILPA1-cYFP (soybean (Glycine max)). Nature of the assay: split reporter (BiFC, NanoBiT); BiFC with nYFP and cYFP fusions co-infiltrated into N. benthamiana leaves together with P19; confocal microscopy; leaves in white light or exposed to 1 h of UV-B (21 μmol m^-2 s^-1).
GmILPA1-cYFP (soybean (Glycine max)), sequence (main, as listed by the source): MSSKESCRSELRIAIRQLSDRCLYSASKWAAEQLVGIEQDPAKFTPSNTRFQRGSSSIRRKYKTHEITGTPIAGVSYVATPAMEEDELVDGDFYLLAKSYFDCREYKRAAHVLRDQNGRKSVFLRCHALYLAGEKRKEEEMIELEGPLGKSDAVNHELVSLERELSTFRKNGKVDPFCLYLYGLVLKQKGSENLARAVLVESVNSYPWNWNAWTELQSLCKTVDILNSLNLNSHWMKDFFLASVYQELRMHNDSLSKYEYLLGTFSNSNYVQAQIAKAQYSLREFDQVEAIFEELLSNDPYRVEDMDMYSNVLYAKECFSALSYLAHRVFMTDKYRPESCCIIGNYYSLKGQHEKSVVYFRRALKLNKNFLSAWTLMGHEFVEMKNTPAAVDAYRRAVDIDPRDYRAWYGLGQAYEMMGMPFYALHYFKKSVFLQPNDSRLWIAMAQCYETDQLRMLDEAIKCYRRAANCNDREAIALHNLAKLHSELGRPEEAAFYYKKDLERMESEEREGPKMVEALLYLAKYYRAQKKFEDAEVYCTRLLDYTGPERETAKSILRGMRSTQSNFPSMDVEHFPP

For GmGA2ox-like-nYFP (enzyme), the fold change of the relative BiFC fluorescence intensity in the cytoplasm, UV-B against white light turned out to be 3 fold.
